Source: patent US20230034186A1 (DRAGONFLY THERAPEUTICS, published 2023)

Biological target: HER2 (human, UniProt P04626 23-1255)
Assay: cell-based or functional assay

B1: A49-F3′-TriNKET-Trastuzumab (bispecific antibody)
heavy: EVQLVESGGGLVKPGGSLRLSCAASGFTFSSYSMNWVRQAPGKGLEWVSSISSSSSYIYYADSVKGRFTISRDNAKNSLYLQMNSLRAEDTAVYYCARGAPMGAAAGWFDPWGQGTLVTVSSASTKGPSVFPLAPSSKSTSGGTAALGCLVKDYFPEPVTVSWNSGALTSGVHTFPAVLQSSGLYSLSSVVTVPSSSLGTQTYICNVNHKPSNTKVDKKVEPKSCDKTHTCPPCPAPELLGGPSVFLFPPKPKDTLMISRTPEVTCVVVDVSHEDPEVKFNWYVDGVEVHNAKTKPREEQYNSTYRVVSVLTVLHQDWLNGKEYKCKVSNKALPAPIEKTISKAKGQPREPQVCTLPPSRDELTENQVSLTCLVKGFYPSDIAVEWESNGQPENNYKTTPPVLDSDGSFFLYSWLTVDKSRWQQGNVFSCSVMHEALHNHYTQKSLSLSPG
chain: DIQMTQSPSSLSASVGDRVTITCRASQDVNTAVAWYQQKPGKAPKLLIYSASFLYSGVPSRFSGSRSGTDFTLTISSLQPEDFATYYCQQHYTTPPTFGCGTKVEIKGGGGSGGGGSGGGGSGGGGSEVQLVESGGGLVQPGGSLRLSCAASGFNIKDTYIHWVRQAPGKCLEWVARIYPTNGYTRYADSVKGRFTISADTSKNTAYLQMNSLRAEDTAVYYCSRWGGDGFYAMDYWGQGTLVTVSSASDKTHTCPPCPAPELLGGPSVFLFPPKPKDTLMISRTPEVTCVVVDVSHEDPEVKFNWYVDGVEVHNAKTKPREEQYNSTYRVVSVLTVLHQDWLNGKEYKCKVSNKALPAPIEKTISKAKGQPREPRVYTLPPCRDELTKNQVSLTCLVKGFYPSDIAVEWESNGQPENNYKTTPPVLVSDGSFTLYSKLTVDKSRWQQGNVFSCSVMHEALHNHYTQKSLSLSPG
light: DIQMTQSPSSVSASVGDRVTITCRASQGISSWLAWYQQKPGKAPKLLIYAASSLQSGVPSRFSGSGSGTDFTLTISSLQPEDFATYYCQQGVSFPRTFGGGTKVEIKRTVAAPSPPSDEQLKSGTASVVCLLNNFYPREAKVQWKVDNALQSGNSQESVTEQDSKDSTYSLSSTLTLSKADYEKHKVYACEVTHQGLSSPVTKSFNRGEC
  EC50 in KHYG-1-CD16V cell killing of Hs578T cells: 0.376 nM
  EC50 in KHYG-1-CD16V cell-mediated cytolysis of BT-20 cells: 1.16 nM
  fold potency against trastuzumab in triggering NK cell-mediated killing of SKBR-3 cells: 2.5 fold
